Blank lines part the entries; values can stand above or below the binder they belong to.
Molecular target: recombinant human HER3 extracellular domain (human, UniProt P21860 20-643)
Experiment: BLI

Chain of recombinant human HER3 extracellular domain (P21860 20-643): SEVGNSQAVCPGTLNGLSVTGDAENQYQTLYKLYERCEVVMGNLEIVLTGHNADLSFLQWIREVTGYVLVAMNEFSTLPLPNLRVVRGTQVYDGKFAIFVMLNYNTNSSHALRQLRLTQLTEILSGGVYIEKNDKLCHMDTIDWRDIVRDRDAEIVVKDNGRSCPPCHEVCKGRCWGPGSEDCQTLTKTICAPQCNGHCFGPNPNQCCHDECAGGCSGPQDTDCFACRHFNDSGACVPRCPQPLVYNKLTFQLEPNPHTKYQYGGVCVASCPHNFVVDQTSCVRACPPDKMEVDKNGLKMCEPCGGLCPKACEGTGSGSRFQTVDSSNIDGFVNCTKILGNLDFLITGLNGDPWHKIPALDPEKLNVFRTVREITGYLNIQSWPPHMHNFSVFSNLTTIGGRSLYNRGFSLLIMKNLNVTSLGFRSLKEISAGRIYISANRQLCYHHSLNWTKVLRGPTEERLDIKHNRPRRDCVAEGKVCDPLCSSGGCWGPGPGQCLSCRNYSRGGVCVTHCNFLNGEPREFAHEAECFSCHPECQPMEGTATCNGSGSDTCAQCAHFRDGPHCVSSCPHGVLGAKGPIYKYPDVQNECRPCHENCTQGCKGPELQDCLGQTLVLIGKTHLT

Kd: 0.1 µM
fold binding affinity against neuregulin-HER3: > 3 fold
B1: recombinant human LRG1 (leucine-rich alpha-2-glycoprotein 1) (ligand, UniProt P02750 36-347, looked up)
chain: VTLSPKDCQVFRSDHGSSISCQPPAEIPGYLPADTVHLAVEFFNLTHLPANLLQGASKLQELHLSSNGLESLSPEFLRPVPQLRVLDLTRNALTGLPPGLFQASATLDTLVLKENQLEVLEVSWLHGLKALGHLDLSGNRLRKLPPGLLANFTLLRTLDLGENQLETLPPDLLRGPLQLERLHLEGNKLQVLGKDLLLPQPDLRYLFLNGNKLARVAAGAFQGLRQLDMLDLSNNSLASVPEGLWASLGQPNWDMRDGFDISGNPWICDQNLSDLYRWLQAQKDKMFSQNDTRCAGPEAVKGQTLLAVAKSQ

binding result: binds
B2: neuregulin-beta1 (Ser 2-Lys 246 N-terminal fragment) (ligand, human, UniProt Q02297-6 2-246, looked up)
chain: SERKEGRGKGKGKKKERGSGKKPESAAGSQSPALPPRLKEMKSQESAAGSKLVLRCETSSEYSSLRFKWFKNGNELNRKNKPQNIKIQKKPGKSELRINKASLADSGEYMCKVISKLGNDSASANITIVESNEIITGMPASTEGAYVSSESPIRISVSTEGANTSSSTSTSTTGTSHLVKCAEKEKTFCVNGGECFMVKDLSNPSRYLCKCPNEFTGDRCQNYVMASFYKHLGIEFMEAEELYQK
